Residue numbers refer to the chain shown, from its start. Like-named read-outs stand apart in the source and are kept apart here.
T1: human IL-2Rα on Treg cells (CD3+, CD4+, CD25hi, FoxP3+) of human PBMC (human, UniProt P01589 22-272)
T1 sequence (looked up): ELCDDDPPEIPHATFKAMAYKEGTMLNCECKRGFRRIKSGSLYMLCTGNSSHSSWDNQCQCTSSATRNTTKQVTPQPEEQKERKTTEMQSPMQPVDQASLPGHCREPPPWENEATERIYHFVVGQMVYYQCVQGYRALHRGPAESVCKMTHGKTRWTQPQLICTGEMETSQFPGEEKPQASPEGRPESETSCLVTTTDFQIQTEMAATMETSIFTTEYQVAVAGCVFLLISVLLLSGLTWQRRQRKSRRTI

T2: trimeric murine IL-2 receptor (IL-2Rα, IL-2Rβ, and IL-2Rγ) on CTLL-2 cells (murine, UniProt P01590 22-268; P16297 27-539; P34902 23-369)
T2 sequence (looked up) 1: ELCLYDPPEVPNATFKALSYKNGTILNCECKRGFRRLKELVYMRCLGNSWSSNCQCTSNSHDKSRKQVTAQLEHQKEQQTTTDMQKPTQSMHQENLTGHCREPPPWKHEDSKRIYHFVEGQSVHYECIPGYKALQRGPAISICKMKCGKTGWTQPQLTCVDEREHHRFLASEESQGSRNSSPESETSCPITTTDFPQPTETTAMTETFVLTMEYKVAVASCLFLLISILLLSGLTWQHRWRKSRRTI
T2 sequence (looked up) 2: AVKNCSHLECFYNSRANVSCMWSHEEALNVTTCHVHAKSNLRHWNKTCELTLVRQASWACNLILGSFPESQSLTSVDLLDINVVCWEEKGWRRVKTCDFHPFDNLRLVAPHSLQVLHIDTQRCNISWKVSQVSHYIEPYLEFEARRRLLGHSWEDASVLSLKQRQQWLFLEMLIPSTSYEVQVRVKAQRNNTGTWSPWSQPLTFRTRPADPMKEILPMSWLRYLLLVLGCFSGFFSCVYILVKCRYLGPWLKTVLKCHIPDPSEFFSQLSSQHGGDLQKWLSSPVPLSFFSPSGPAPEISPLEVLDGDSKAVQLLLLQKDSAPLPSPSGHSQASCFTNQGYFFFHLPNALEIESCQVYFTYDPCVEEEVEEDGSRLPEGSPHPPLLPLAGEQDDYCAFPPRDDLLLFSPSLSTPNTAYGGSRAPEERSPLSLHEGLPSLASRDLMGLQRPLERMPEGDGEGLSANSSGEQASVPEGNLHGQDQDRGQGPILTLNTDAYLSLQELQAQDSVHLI
T2 sequence (looked up) 3: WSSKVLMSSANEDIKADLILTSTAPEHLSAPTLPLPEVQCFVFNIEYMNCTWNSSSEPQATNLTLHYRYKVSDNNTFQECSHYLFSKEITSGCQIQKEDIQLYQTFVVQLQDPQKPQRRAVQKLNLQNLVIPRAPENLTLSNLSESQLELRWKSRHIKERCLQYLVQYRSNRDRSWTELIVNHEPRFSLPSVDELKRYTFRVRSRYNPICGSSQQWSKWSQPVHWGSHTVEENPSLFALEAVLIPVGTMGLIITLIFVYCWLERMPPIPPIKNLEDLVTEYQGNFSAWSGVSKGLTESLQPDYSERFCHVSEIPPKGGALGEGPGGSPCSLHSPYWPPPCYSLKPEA

T3: IL-2Rα (recombinant IL-2 receptor α, R&D Systems Cat #: 223-2A/CF), biotinylated (human, UniProt P01589 22-213, limits assumed, biotinylated using sulfo-NHS-LC-LC-Biotin)
T3 construct: Bought reagent; also used here as the IL-2Rα partner of the in-silico analysis of PDB 2B5I (another construct); also called IL-2RA; CD25
T3 sequence (looked up): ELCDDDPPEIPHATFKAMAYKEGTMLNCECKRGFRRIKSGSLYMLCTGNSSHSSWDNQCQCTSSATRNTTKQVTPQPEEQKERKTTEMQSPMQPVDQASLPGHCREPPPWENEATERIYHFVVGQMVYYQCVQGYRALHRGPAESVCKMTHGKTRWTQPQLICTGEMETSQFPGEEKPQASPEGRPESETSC

T4: IL-2Rβ (recombinant IL-2 receptor β, R&D Systems Cat #:224-2B-025/CF), biotinylated (UniProt P14784 27-239, limits assumed, biotinylated using sulfo-NHS-LC-LC-Biotin)
T4 construct: Bought reagent; also called IL-2RB; CD122
T4 sequence (looked up): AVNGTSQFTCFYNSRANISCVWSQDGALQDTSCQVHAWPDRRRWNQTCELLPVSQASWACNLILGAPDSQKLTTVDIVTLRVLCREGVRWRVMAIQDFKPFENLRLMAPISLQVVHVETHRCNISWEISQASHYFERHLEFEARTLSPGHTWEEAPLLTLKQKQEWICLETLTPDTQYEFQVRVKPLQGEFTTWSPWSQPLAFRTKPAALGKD

B1: Fc-IL-2v heterodimer 82.46 (hIL-2v_Δ1-5_R38A_C125S) (Fc fusion)
chain 1: ESKYGPPCPPCPAPEAAGGPSVFLFPPKPKDTLMISRTPEVTCVVVDVSQEDPEVQFNWYVDGVEVHNAKTKPREEQFNSTYRVVSVLTVLHQDWLNGKEYKCKVSNKGLPSSIEKTISKAKGQPREPQVYTLPPSQEEMTKNQVSLWCLVKGFYPSDIAVEWESNGQPENNYKTTPPVLDSDGSFFLYSRLTVDKSRWQEGNVFSCSVMHEALHNHYTQKSLSLSLGGGGGSGGGGSGGGGSGGGGSSTKKTQLQLEHLLLDLQMILNGINNYKNPKLTAMLTFKFYMPKKATELKHLQCLEEELKPLEEVLNLAQSKNFHLRPRDLISNINVIVLELKGSETTFMCEYADETATIVEFLNRWITFSQSIISTLT
chain 2: ESKYGPPCPPCPAPEAAGGPSVFLFPPKPKDTLMISRTPEVTCVVVDVSQEDPEVQFNWYVDGVEVHNAKTKPREEQFNSTYRVVSVLTVLHQDWLNGKEYKCKVSNKGLPSSIEKTISKAKGQPREPQVYTLPPSQEEMTKNQVSLSCAVKGFYPSDIAVEWESNGQPENNYKTTPPVLDSDGSFFLVSRLTVDKSRWQEGNVFSCSVMHEALHNRFTQKSLSLSLGK
notes: hIgG4 knob-in-hole Fc heterodimer, one IL-2v on the knob chain
B2: Fc-IL-2v heterodimer 92.46 (hIL-2v_Δ1-5_L72G_C125S) (Fc fusion)
chain 1: B1 chain 1 with A281R, L315G
chain 2: B1 chain 2
notes: as for B1
B3: Fc-IL-2v heterodimer 91.46 (hIL-2v_Δ1-5_E68A_C125S) (Fc fusion)
chain 1: B1 chain 1 with A281R, E311A
chain 2: B1 chain 2
notes: as for B1
B4: Fc-IL-2v heterodimer 84.46 (hIL-2v_Δ1-5_T41A_C125S) (Fc fusion)
chain 1: B1 chain 1 with A281R, T284A
chain 2: B1 chain 2
notes: as for B1
B5: Fc-IL-2v heterodimer 116.46 (hIL-2v_Δ1-5_R38G_E61A_E62A_C125S) (Fc fusion)
chain 1: B1 chain 1 with A281G, E304A, E305A
chain 2: B1 chain 2
notes: as for B1
B6: Fc-IL-2v heterodimer 88.46 (hIL-2v_Δ1-5_Y45A_C125S) (Fc fusion)
chain 1: B1 chain 1 with A281R, Y288A
chain 2: B1 chain 2
notes: as for B1
B7: Fc-IL-2v heterodimer 93.46 (hIL-2v_Δ1-5_Q74G_C125S) (Fc fusion)
chain 1: B1 chain 1 with A281R, Q317G
chain 2: B1 chain 2
notes: as for B1
B8: Fc-IL-2v heterodimer 112.46 (hIL-2v_Δ1-5_R38G_Y45G_E62A_C125S) (Fc fusion)
chain 1: B1 chain 1 with A281G, Y288G, E305A
chain 2: B1 chain 2
notes: as for B1
B9: Fc-IL-2v heterodimer 109.46 (hIL-2v_Δ1-5_F42A_Y45G_E61A_C125S) (Fc fusion)
chain 1: B1 chain 1 with A281R, F285A, Y288G, E304A
chain 2: B1 chain 2
notes: as for B1
B10: Fc-IL-2v heterodimer 85.46 (hIL-2v_Δ1-5_F42G_C125S) (Fc fusion)
chain 1: B1 chain 1 with A281R, F285G
chain 2: B1 chain 2
notes: as for B1
B11: Fc-IL-2v heterodimer 115.46 (hIL-2v_Δ1-5_F42A_E61A_E62A_C125S) (Fc fusion)
chain 1: B1 chain 1 with A281R, F285A, E304A, E305A
chain 2: B1 chain 2
notes: as for B1
B12: Fc-IL-2v heterodimer 110.46 (hIL-2v_Δ1-5_R38G_Y45G_E61A_C125S) (Fc fusion)
chain 1: B1 chain 1 with A281G, Y288G, E304A
chain 2: B1 chain 2
notes: as for B1
B13: Fc-IL-2v heterodimer 111.46 (hIL-2v_Δ1-5_R38G_F42A_E61A_C125S) (Fc fusion)
chain 1: B1 chain 1 with A281G, F285A, E304A
chain 2: B1 chain 2
notes: as for B1

How the values were obtained:
[1] = biological target: T1, human IL-2Rα on Treg cells (CD3+, CD4+, …); assay: cell-based or functional assay
[2] = biological target: T2, trimeric murine IL-2 receptor (IL-2Rα, …); assay: cell-based or functional assay
[3] = biological target: T3, IL-2Rα (recombinant IL-2 receptor α, …); assay: SPR (Biacore), C1 or CM5 chip, biotinylated receptor on neutravidin
Excerpt: (§1) Data for binding of Fc-IL-2 variant fusion proteins to IL-2Rα, IL-2Rβ and IL-2Rβγ heterodimer were collected on a Biacore platform using either C1 or CM5 chips. Neutravidin was immobilized using standard amine coupling methods and used to capture biotinylated receptors. Commercially sourced IL-2Rα (R&D Systems Cat #: 223-2A/CF) and IL-2Rβ receptors (R&D Systems Cat #:224-2B-025/CF) were biotinylated using sulfo-NHS-LC-LC-Biotin, desalted, and then captured on the neutravidin surfaces. […] Distinct purification tags were appended to the C-terminus of each chain. A FLAG epitope tag ([…]; SEQ ID NO: 257) was added at the C-terminus of IL-2Rβ subunit, followed by C-terminal Hiss tag ([…]; SEQ ID NO: 258). An AviTag™ ([…]; SEQ ID NO: 259) motif on the IL-2Rγ subunit allowed for site-specific biotinylation of the heterodimer.
(§2) Fc IL 2 fusion protein variants, Fc protein, and Proleukin were injected at various concentrations over these surfaces. Kinetic data obtained from these injections was used to extract kₒₙ and koff to calculate KD (KD=koff/kₒₙ). Experiments were run at 25° C. in HBS-EP+ running buffer (10 mM HEPES, 150 mM NaCl, 3 mM EDTA, 0.05% Tween20, pH 7.4 with 0.1 mg/ml BSA). Data shown in Table 5 for Fc IL-2 fusion protein variants binding to the indicated IL-2R surfaces were derived from the global fitting of data obtained from 2-5 independent surfaces.

[4] = biological target: T4, IL-2Rβ (recombinant IL-2 receptor β, …); assay: as above
Excerpt: as §1, §2

[5] = biological target: T2, trimeric murine IL-2 receptor (IL-2Rα, …); assay: cell-based or functional assay; remark: listed apart in the source
[6] = biological target: T5, IL-2Rβγ heterodimer, custom biotinylated Fc fusion protein (human IL-2Rβ 27-240-Fc-FLAG / human IL-2Rγ … (human, site-specific biotinylation at the AviTag)); assay: SPR (Biacore), CM4 chip, biotinylated receptor on neutravidin
T5 construct: Extracellular regions fused to IgG1 knob-in-hole Fc subunits with tags; also called IL-2 receptor βγ heterodimer; Fc-IL-2Rβγ
T5 sequence (chain, as listed by the source limits assumed): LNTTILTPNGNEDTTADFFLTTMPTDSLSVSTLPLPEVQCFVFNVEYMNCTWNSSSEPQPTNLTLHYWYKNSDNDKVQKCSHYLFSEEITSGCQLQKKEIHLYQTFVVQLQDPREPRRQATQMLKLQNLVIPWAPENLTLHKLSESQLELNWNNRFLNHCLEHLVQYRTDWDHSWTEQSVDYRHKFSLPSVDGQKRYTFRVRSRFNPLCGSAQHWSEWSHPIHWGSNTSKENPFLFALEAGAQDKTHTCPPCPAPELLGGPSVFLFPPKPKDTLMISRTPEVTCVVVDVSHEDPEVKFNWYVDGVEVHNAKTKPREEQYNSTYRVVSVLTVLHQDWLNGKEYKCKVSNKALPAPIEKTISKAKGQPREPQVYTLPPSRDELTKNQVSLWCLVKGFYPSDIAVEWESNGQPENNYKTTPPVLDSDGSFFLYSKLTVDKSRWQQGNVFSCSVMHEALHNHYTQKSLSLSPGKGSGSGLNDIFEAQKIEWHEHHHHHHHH
Method: Fc-IL-2 variant binding data was collected on a Biacore platform using a CM4 chip. Neutravidin was immobilized using standard amine coupling methods and used to capture biotinylated receptors. The source, preparation and immobilization of biotinylated IL-2Rα and IL-2Rβγ heterodimer was as described in Example 4. Proleukin was used as a comparator. Fc-IL-2 variants and Proleukin were injected at various concentrations over these surfaces. Kinetic data obtained from these injections was used to extract kₒₙ and koff to calculate KD (KD=Koff/kₒₙ).

Binder	Treg EC50, STAT5 activation (PBMC STAT5 assay) [1]	STAT5 activation of CTLL-2 cells, EC50 [2]	Kd [3]	Kd [4]	STAT5 activation of CTLL-2 cells, EC50 [5]	Kd [6]
B1	< 0.001 nM	0.01 nM	108 nM	8200 nM	–	–
B2	< 0.001 nM	0.7 nM	503 nM	8000 nM	–	–
B3	< 0.001 nM	0.001 nM	32 nM	5900 nM	–	–
B4	< 0.001 nM	0.03 nM	119 nM	7000 nM	–	–
B5	–	–	–	–	16.3 nM	0.115 nM
B6	< 0.001 nM	0.1 nM	120 nM	8000 nM	–	–
B7	< 0.001 nM	0.002 nM	21 nM	8200 nM	–	–
B8	–	–	–	–	13.1 nM	0.066 nM
B9	–	–	–	–	36.2 nM	0.056 nM
B10	0.06 nM	5.5 nM	4900 nM	7500 nM	–	–
B11	–	–	–	–	67.1 nM	0.093 nM
B12	–	–	–	–	1.5 nM	0.059 nM
B13	–	–	–	–	11 nM	0.069 nM

Source: US20240269235A1 (Gilead, published 2024)
